Measurements from publication PMC7215387, “Comparison of Target Recognition by TRAF1 and TRAF2” (International Journal of Molecular Sciences, 2020).
Substitutions are numbered along the chain they refer to. Residues, ends and D or L forms follow the SMILES beside them.

Assays:
[1] = target: T1, TRAF1 F347L mutant (Homo sapiens, UniProt Q13077, F347L); assay: Isothermal titration calorimetry (ITC), TRAF1 F347L mutant; format: binding; settings: Supplementary Figure S2a,b
T1 construct: the TRAF1 TRAF domain (amino acid residues 220-416); 6xHis (C); made in house; host or cells: E. coli BL21 (DE3)
T1 sequence (Q13077 220-416 F347L): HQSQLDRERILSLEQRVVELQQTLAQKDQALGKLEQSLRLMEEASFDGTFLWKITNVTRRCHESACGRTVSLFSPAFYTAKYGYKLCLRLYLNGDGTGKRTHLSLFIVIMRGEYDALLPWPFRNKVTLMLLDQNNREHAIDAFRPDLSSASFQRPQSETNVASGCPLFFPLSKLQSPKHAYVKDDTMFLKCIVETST
Text: To understand how TRAF1 binds with higher affinity to TANK and caspase-2, we compared the amino acid sequence of the receptor-binding hot spots on TRAF1 and TRAF2. There are three well-known hot spots in TRAFs (Figure 5a). Based on the sequence comparison, two amino acid residues in TRAF1, F347 of hot spot1 and A369 of hot spot2, were not conserved in TRAF2 (Figure 5b). As the two non-conserved amino acid residues of TRAF1 may generate different conditions for receptor-binding regions and affect its affinity for various receptors, we compared the receptor-binding regions between TRAF1 and TRAF2 by comparing the TRAF1:TANK structure with the TRAF2:latent membrane protein 1 (LMP1) structure (Figure 5c). […] S454 of TRAF2 was not critical for the formation of an H-bond cluster, unlike residues S453 and S455, which were closely located to the Q at the P0 position of the receptor peptide. […] However, F347 on TRAF1 (corresponding to L432 on TRAF2) was critical for determining receptor preference and binding affinity by contributing to the formation of a stable hydrophobic pocket in the hot spot1 motif.
A NanoITC (TA Instruments) was used for isothermal titration calorimetry experiments. […] Binding isotherms were analyzed by using the software provided by TA Instruments. […]

[2] = target: T2, TRAF1 TRAF domain (amino acid residues 220-416) (UniProt Q13077 220-416); assay: ITC; NanoITC; peptide (1 mM) injected into the cell with TRAF domain (~20 uM); PBS; 15 °C; 25 injections; single site model; settings: both partners purified
T2 construct: TRAF1 (TNF receptor-associated factor 1), TRAF domain, residues 220-416; it speaks of 'trimeric TRAF1'; source: E. coli BL21 (DE3), purified (Ni-NTA, SEC); not shown: His6, C-terminal, kept
T2 sequence (looked up): T1 sequence (Q13077 220-416 F347L) with L128F

[3] = target: T3, TRAF2 TRAF domain (amino acid residues 305-501) (UniProt Q12933 305-501); assay: as above; settings: both partners purified
T3 construct: TRAF2 (TNF receptor-associated factor 2), TRAF domain, residues 305-501; it speaks of 'the three subunits of TRAF2'; source: E. coli BL21 (DE3), purified (Ni-NTA, SEC); not shown: His6, C-terminal, kept
T3 sequence (looked up): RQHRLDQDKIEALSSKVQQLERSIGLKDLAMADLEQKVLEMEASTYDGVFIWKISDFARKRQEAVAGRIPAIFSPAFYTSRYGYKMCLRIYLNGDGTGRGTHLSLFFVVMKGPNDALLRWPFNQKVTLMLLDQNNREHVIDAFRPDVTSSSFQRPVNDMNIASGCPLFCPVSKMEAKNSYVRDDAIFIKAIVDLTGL

[4] = target: TRAF1 F347L mutant (UniProt Q13077); assay: as above
[5] = target: TRAF2 S454A mutant (UniProt Q12933); assay: ITC; TRADD with TRAF2 S454A mutant; who was titrated and conditions not told for this experiment
[6] = target: T2, TRAF1 TRAF domain (amino acid residues …); assay: SPR; Biacore T200; His-tagged TRAF domain held on Ni-NTA chip; TRADD-N 0.39-3.125 uM flowed over in PBS, 30 uL/min; settings: both partners purified
[7] = target: T3, TRAF2 TRAF domain (amino acid residues …); assay: as above; settings: both partners purified

Q: With `CC[C@H](C)[C@H](NC(=O)[C@@H]1CCCN1C(=O)[C@@H](NC(=O)[C@@H](N)CO)C(C)C)C(=O)N[C@@H](CCC(N)=O)C(=O)N[C@@H](CS)C(=O)N[C@H](C(=O)N[C@@H](CC(=O)O)C(=O)N[C@@H](CCCCN)C(=O)N[C@H](C(=O)O)[C@@H](C)O)[C@@H](C)O` [TANK] (H-SVPIQCTDKT-OH) as the molecule, how does the Kd [1] read?
A: ~15 µM

Q: For TAQEM (source: synthetic peptide (Peptron)) [caspase-2 peptide (TAQEM)], which Kd [2] is on record?
A: 86.9 µM

Q: And the Kd [3]?
A: 117 µM

Q: What about the Kd [4] of the same molecule?
A: 265 µM

Q: How did the Kd [2] turn out when SVPIQCTDKT (source: synthetic peptide (Peptron)) [TANK peptide (SVPIQCTDKT)] was run?
A: 2.5 µM

Q: What about the Kd [3] of the same molecule?
A: 11.7 µM

B1: N-terminal domain of TRADD (TRADD-N, amino acid residues 1-163) (domain or fragment, UniProt Q15628 1-163, looked up)
chain: MAAGQNGHEEWVGSAYLFVESSLDKVVLSDAYAHPQQKVAVYRALQAALAESGGSPDVLQMLKIHRSDPQLIVQLRFCGRQPCGRFLRAYREGALRAALQRSLAAALAQHSVPLQLELRAGAERLDALLADEERCLSCILAQQPDRLRDEELAELEDALRNLK
notes: TRADD (tumor necrosis factor receptor type 1-associated death domain protein), N-terminal domain, residues 1-163; Cloned into pET24a by NdeI and XhoI; source: E. coli, purified (almost identical to the method for TRAF1 and TRAF2; SEC in 20 mM Tris-HCl pH 8.0, 150 mM NaCl)
Q: How did the Kd [5] turn out when B1 was run?
A: 0.055 µM

Q: And the Kd [6]?
A: 0.082 µM

Q: And the Kd [7]?
A: 0.018 µM
